We go through 1 molecule from article PMC4027165, “SAXS analysis of the tRNA-modifying enzyme complex MnmE/MnmG reveals a novel interaction mode and GTP-induced oligomerization” (Nucleic Acids Research, 2014).

Data set [1] deals with T1, MnmE (Y169A, D175A and F176A) (Escherichia coli, UniProt P25522 1-454, Y169A | D175A | F176A).
T1 sequence: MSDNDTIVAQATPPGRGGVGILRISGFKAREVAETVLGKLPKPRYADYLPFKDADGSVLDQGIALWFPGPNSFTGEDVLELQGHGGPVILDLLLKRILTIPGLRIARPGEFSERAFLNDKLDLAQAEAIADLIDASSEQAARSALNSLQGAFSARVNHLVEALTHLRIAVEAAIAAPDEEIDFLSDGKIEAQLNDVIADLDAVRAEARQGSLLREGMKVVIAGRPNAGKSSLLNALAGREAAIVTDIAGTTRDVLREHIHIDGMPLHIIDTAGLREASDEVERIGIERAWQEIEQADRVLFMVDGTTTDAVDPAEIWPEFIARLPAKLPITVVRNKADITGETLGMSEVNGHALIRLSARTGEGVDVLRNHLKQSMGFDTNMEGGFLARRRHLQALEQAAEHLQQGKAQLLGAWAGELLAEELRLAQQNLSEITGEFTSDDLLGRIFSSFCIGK
The data set can be described thus: ITC; MnmG in syringe, MnmE mutant in cell. A general note: ITC needs no label: the signal is the heat of the interaction.

Data set [2] concerns the target T2, MnmE (Y169A, D175A and F176A) with additional S153A (Escherichia coli, UniProt P25522 1-454, S153A | Y169A | D175A | F176A).
T2 sequence: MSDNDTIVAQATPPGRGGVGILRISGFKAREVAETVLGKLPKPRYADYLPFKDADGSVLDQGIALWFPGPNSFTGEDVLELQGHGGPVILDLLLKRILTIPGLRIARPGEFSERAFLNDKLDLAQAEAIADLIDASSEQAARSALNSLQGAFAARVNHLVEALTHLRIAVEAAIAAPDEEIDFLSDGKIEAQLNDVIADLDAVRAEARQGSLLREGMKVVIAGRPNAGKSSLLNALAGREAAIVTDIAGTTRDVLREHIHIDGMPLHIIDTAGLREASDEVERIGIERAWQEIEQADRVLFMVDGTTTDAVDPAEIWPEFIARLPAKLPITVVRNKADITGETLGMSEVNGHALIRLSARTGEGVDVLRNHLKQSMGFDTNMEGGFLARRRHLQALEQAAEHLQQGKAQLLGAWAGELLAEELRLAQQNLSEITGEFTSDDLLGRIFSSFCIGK
Put plainly: ITC; MnmG in syringe, MnmE mutant in cell.

Data set [3] has as its target T3, MnmE (T434A and D440A) (Escherichia coli, UniProt P25522 1-454, T434A | D440A).
T3 sequence: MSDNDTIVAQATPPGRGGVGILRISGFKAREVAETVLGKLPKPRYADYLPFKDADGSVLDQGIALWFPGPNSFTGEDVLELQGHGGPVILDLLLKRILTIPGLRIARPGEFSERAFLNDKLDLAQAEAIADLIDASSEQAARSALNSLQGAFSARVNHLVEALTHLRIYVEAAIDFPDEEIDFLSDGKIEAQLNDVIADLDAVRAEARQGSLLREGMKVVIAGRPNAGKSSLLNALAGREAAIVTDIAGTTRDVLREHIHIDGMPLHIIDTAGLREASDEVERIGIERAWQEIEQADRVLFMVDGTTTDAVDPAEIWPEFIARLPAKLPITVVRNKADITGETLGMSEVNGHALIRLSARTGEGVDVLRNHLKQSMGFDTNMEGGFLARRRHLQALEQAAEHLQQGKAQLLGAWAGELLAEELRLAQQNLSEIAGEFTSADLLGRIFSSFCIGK
The data set can be described thus: ITC; MnmG in syringe, MnmE mutant in cell.

Data set [4] concerns the molecule itself. The data set can be described thus: SEC-MALS; E. coli MnmG alone, at all concentrations used (Supplementary Figure S2(D)). In general terms: Size exclusion chromatography separates by hydrodynamic size, large species first.
The target in data set [5] is T1, MnmE (Y169A, D175A and F176A). Put plainly: ITC; MnmE mutant in syringe, MnmG in cell.
In data set [6] the target is T2, MnmE (Y169A, D175A and F176A) with …. The data set can be described thus: ITC; MnmE mutant in syringe, MnmG in cell.
In data set [7] the target is T3, MnmE (T434A and D440A). Put plainly: ITC; MnmE mutant in syringe, MnmG in cell.
Data set [8] concerns the target T4, MnmE from Escherichia coli, wild type (Escherichia coli, UniProt P25522 1-454).
T4 construct: tRNA modification GTPase MnmE (formerly TrmE), Escherichia coli; open reading frame cloned in a pET20 vector; Homodimer of about 50-kDa subunits; Used nucleotide-free, with GDP-AlFx or with GppNHp depending on the experiment; also called TrmE; MnmE wt
T4 sequence (looked up): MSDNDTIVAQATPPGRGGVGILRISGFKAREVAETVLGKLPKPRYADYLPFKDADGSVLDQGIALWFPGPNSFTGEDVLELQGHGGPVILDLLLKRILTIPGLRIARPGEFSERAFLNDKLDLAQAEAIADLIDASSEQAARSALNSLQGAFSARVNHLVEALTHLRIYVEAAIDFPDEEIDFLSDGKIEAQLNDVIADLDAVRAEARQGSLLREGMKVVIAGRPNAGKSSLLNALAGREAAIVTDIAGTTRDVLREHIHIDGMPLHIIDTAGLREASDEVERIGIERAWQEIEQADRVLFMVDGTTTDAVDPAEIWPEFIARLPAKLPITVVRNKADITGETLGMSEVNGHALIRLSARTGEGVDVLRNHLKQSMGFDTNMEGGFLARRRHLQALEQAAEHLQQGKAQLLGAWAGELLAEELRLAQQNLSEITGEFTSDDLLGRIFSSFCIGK
The data set can be described thus: ITC; 278 K; 20 mM Hepes pH 7.5, 150 mM NaCl, 5 mM MgCl2, 2 mM BME, 1 mM FAD; 15 uM in the cell, 300 uM in the syringe; titrated in both directions; one site model; apparent. Conditions: both partners purified.

A word on the Kd: it is the equilibrium constant for the complex coming apart. The stoichiometry N is a count of units in the complex or per binding partner.

B1: MnmG from Escherichia coli, wild type (enzyme, UniProt P0A6U3 1-629, looked up)
chain: MFYPDPFDVIIIGGGHAGTEAAMAAARMGQQTLLLTHNIDTLGQMSCNPAIGGIGKGHLVKEVDALGGLMAKAIDQAGIQFRILNASKGPAVRATRAQADRVLYRQAVRTALENQPNLMIFQQAVEDLIVENDRVVGAVTQMGLKFRAKAVVLTVGTFLDGKIHIGLDNYSGGRAGDPPSIPLSRRLRELPLRVGRLKTGTPPRIDARTIDFSVLAQQHGDNPMPVFSFMGNASQHPQQVPCYITHTNEKTHDVIRSNLDRSPMYAGVIEGVGPRYCPSIEDKVMRFADRNQHQIFLEPEGLTSNEIYPNGISTSLPFDVQMQIVRSMQGMENAKIVRPGYAIEYDFFDPRDLKPTLESKFIQGLFFAGQINGTTGYEEAAAQGLLAGLNAARLSADKEGWAPARSQAYLGVLVDDLCTLGTKEPYRMFTSRAEYRLMLREDNADLRLTEIGRELGLVDDERWARFNEKLENIERERQRLKSTWVTPSAEAAAEVNAHLTAPLSREASGEDLLRRPEMTYEKLTTLTPFAPALTDEQAAEQVEIQVKYEGYIARQQDEIEKQLRNENTLLPATLDYRQVSGLSNEVIAKLNDHKPASIGQASRISGVTPAAISILLVWLKKQGMLRRSA
notes: tRNA uridine 5-carboxymethylaminomethyl modification enzyme MnmG (formerly GidA), Escherichia coli; open reading frame cloned in a pET14b vector; Homodimer of 70-kDa subunits; also called GidA; MnmG wt
On to B1, for which the equilibrium dissociation constant (Kd) worked out at 11.4 µM in data set [1]; 29.9 µM in data set [2]; 9.4 µM with MnmE (T434A and D440A) [3]; 12 µM in data set [5]; 12.9 µM in data set [6]; 11.2 µM with MnmE (T434A and D440A) [7]. Also, the “stoichiometry N” value came out at 2 in data set [4] and 1 in data set [8].
